The target of series [1] is full-length ArcS260D,T278A (rat) (UniProt Q63053). Put plainly: dynamic light scattering.
Series [2] has as its target Arc (Arg3.1) (UniProt Q63053). Put plainly: dynamic light scattering of oligomer size. Conditions: reference: wild type; sites T278.
The target of series [3] is full-length ArcK257A (rat) (UniProt Q63053). Put plainly: dynamic light scattering.
The target in series [4] is full-length ArcG277D (rat) (UniProt Q63053). Description: dynamic light scattering.
For series [5], the target named is full-length ArcQ241A (rat) (UniProt Q63053). Put plainly: dynamic light scattering.
Series [6] addresses full-length ArcS260D (rat) (UniProt Q63053). Put plainly: dynamic light scattering.
Series [7] has as its target full-length ArcS260D,T278D (rat) (UniProt Q63053). Put plainly: dynamic light scattering.
Series [8] deals with the molecule itself. Put plainly: dynamic light scattering.
Series [9] concerns the molecule itself. Description: dynamic light scattering. The source holds these as a separate data set.

Values joined by “and” are separate entries in the source; they are usually repeats but may differ in a detail not shown here. Equal entries are not always repeated. Where two headings read alike, the source gives them in different places.

Broadly, the stoichiometry N is the number of molecules, sites or subunits per partner or assembly.

With “full-length ArcS260D,T278A (from UniProt Q63053 1-396) (natural protein)”, the stoichiometry N in series [1] turned out to be 4.

In the case of “Arc (Arg3.1) (from UniProt Q63053) T278D”, the “other: oligomer mass from DLS after 6 min at 30°C” value in series [2] is given as “weaker; reference ~2458”.

For the molecule “full-length ArcK257A (from UniProt Q63053 1-396) (natural protein)”, the stoichiometry N in [3] amounted to 4.

In turn, “full-length ArcG277D (from UniProt Q63053 1-396) (natural protein)” displayed a stoichiometry N in [4] of 4.

Take “full-length ArcQ241A (from UniProt Q63053 1-396) (natural protein)”: the stoichiometry N in [5] is 4.

Consider “full-length ArcS260D (from UniProt Q63053 1-396) (natural protein)”, for which the stoichiometry N in series [6] came out at 4.

As for “full-length ArcS260D,T278D (from UniProt Q63053 1-396) (natural protein)”, the stoichiometry N in series [7] is 4.

B1: full-length Rn Arc (wild type) (natural protein, rat, UniProt Q63053 1-396, looked up)
chain: MELDHMTTGGLHAYPAPRGGPAAKPNVILQIGKCRAEMLEHVRRTHRHLLTEVSKQVERELKGLHRSVGKLENNLDGYVPTGDSQRWKKSIKACLCRCQETIANLERWVKREMHVWREVFYRLERWADRLESMGGKYPVGSEPARHTVSVGVGGPEPYCQEADGYDYTVSPYAITPPPAAGELPEQESVGAQQYQSWVPGEDGQPSPGVDTQIFEDPREFLSHLEEYLRQVGGSEEYWLSQIQNHMNGPAKKWWEFKQGSVKNWVEFKKEFLQYSEGTLSREAIQRELDLPQKQGEPLDQFLWRKRDLYQTLYVDAEEEEIIQYVVGTLQPKFKRFLRHPLPKTLEQLIQRGMEVQDGLEQAAEPSVTPLPTEDETEALTPALTSESVASDRTQPE
For B1, the “stoichiometry N” value was ~32 and ~48 in [8]; 4 in series [9].

B2: full-length ArcS260A,T278A (natural protein, rat, UniProt Q63053 1-396, looked up)
chain: MELDHMTTGGLHAYPAPRGGPAAKPNVILQIGKCRAEMLEHVRRTHRHLLTEVSKQVERELKGLHRSVGKLENNLDGYVPTGDSQRWKKSIKACLCRCQETIANLERWVKREMHVWREVFYRLERWADRLESMGGKYPVGSEPARHTVSVGVGGPEPYCQEADGYDYTVSPYAITPPPAAGELPEQESVGAQQYQSWVPGEDGQPSPGVDTQIFEDPREFLSHLEEYLRQVGGSEEYWLSQIQNHMNGPAKKWWEFKQGAVKNWVEFKKEFLQYSEGALSREAIQRELDLPQKQGEPLDQFLWRKRDLYQTLYVDAEEEEIIQYVVGTLQPKFKRFLRHPLPKTLEQLIQRGMEVQDGLEQAAEPSVTPLPTEDETEALTPALTSESVASDRTQPE
With B2, the binding result in series [8] is given as “binds”.

B3: full-length ArcT278D (natural protein, rat, UniProt Q63053 1-396, looked up)
chain: MELDHMTTGGLHAYPAPRGGPAAKPNVILQIGKCRAEMLEHVRRTHRHLLTEVSKQVERELKGLHRSVGKLENNLDGYVPTGDSQRWKKSIKACLCRCQETIANLERWVKREMHVWREVFYRLERWADRLESMGGKYPVGSEPARHTVSVGVGGPEPYCQEADGYDYTVSPYAITPPPAAGELPEQESVGAQQYQSWVPGEDGQPSPGVDTQIFEDPREFLSHLEEYLRQVGGSEEYWLSQIQNHMNGPAKKWWEFKQGSVKNWVEFKKEFLQYSEGDLSREAIQRELDLPQKQGEPLDQFLWRKRDLYQTLYVDAEEEEIIQYVVGTLQPKFKRFLRHPLPKTLEQLIQRGMEVQDGLEQAAEPSVTPLPTEDETEALTPALTSESVASDRTQPE
With B3, the results for the “stoichiometry N” value in [8] and in series [9] were around 24 and 4, respectively.

B4: full-length ArcS260A (natural protein, rat, UniProt Q63053 1-396, looked up)
chain: MELDHMTTGGLHAYPAPRGGPAAKPNVILQIGKCRAEMLEHVRRTHRHLLTEVSKQVERELKGLHRSVGKLENNLDGYVPTGDSQRWKKSIKACLCRCQETIANLERWVKREMHVWREVFYRLERWADRLESMGGKYPVGSEPARHTVSVGVGGPEPYCQEADGYDYTVSPYAITPPPAAGELPEQESVGAQQYQSWVPGEDGQPSPGVDTQIFEDPREFLSHLEEYLRQVGGSEEYWLSQIQNHMNGPAKKWWEFKQGAVKNWVEFKKEFLQYSEGTLSREAIQRELDLPQKQGEPLDQFLWRKRDLYQTLYVDAEEEEIIQYVVGTLQPKFKRFLRHPLPKTLEQLIQRGMEVQDGLEQAAEPSVTPLPTEDETEALTPALTSESVASDRTQPE
In the case of B4, in [8], the binding result was “binds”.
